Measurements: patent publication US12246066 (AGENUS, dated 2025)

B1: AGEN1884.H3 (IgG1 L235V/F243L/R292P/Y300L/P396L) (antibody)
heavy: EVQLVESGGGLVKPGGSLRLSCAASGFTFSSYSMNWVRQAPGKGLEWVSSISSSSSYIYYAESVKGRFTISRDNAKNSLYLQMNSLRAEDTAVYYCARVGLFGPFDIWGQGTLVTVSSASTKGPSVFPLAPSSKSTSGGTAALGCLVKDYFPEPVTVSWNSGALTSGVHTFPAVLQSSGLYSLSSVVTVPSSSLGTQTYICNVNHKPSNTKVDKRVEPKSCDKTHTCPPCPAPELVGGPSVFLLPPKPKDTLMISRTPEVTCVVVDVSHEDPEVKFNWYVDGVEVHNAKTKPPEEQYNSTLRVVSVLTVLHQDWLNGKEYKCKVSNKALPAPIEKTISKAKGQPREPQVYTLPPSREEMTKNQVSLTCLVKGFYPSDIAVEWESNGQPENNYKTTPLVLDSDGSFFLYSKLTVDKSRWQQGNVFSCSVMHEALHNHYTQKSLSLSPG
light: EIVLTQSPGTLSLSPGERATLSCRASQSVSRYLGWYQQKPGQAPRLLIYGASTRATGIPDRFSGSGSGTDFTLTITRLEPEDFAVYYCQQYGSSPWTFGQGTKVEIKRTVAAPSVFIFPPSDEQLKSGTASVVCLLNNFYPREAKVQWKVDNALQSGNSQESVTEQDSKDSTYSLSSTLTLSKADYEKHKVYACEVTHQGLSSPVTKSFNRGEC
B2: AGEN1884.H3 (IgG1 S239D/A330L/I332E) (antibody)
heavy: EVQLVESGGGLVKPGGSLRLSCAASGFTFSSYSMNWVRQAPGKGLEWVSSISSSSSYIYYAESVKGRFTISRDNAKNSLYLQMNSLRAEDTAVYYCARVGLFGPFDIWGQGTLVTVSSASTKGPSVFPLAPSSKSTSGGTAALGCLVKDYFPEPVTVSWNSGALTSGVHTFPAVLQSSGLYSLSSVVTVPSSSLGTQTYICNVNHKPSNTKVDKRVEPKSCDKTHTCPPCPAPELLGGPDVFLFPPKPKDTLMISRTPEVTCVVVDVSHEDPEVKFNWYVDGVEVHNAKTKPREEQYNSTYRVVSVLTVLHQDWLNGKEYKCKVSNKALPLPEEKTISKAKGQPREPQVYTLPPSREEMTKNQVSLTCLVKGFYPSDIAVEWESNGQPENNYKTTPPVLDSDGSFFLYSKLTVDKSRWQQGNVFSCSVMHEALHNHYTQKSLSLSPG
light: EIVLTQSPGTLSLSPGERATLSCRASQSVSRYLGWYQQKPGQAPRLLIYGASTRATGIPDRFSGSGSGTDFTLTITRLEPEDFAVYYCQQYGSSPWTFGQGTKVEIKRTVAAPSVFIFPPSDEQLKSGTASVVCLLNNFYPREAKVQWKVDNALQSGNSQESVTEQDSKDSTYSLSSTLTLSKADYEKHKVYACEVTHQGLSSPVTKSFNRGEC
notes: Section 7.2.2 prints 'A330E'; also called AGEN1884.H3 (IgG1-S239D/A330E/I332E) as printed in section 7.2.2
B3: AGEN1884.H1.1 (IgG1) (antibody, V domains shown)
VH: EVQLVESGGGLVKPGGSLRLSCAASGFTFSSYSMNWVRQAPGKGLEWVSSISSSSSYIYYADSVKGRFTISRDNAKNSLYLQMNSLRAEDTAVYYCARVGLFGPFDIWGQGTMVTVSS
VL: EIVLTQSPGTLSLSPGERATLSCRASQSVSRYLGWYQQKPGQAPRLLIYGASTRATGIPDRFSGSGSGTDFTLTITRLEPEDFAVYYCQQYGSSPWTFGQGTKVEIK
B4: AGEN1884.H2.2 (IgG1) (antibody, V domains shown)
VH: EVQLVESGGGLVKPGGSLRLSCAASGFTFSSYSMNWVRQAPGKGLEWVSSISSSSSYIYYAESVKGRFTISRDNAKNSLYLQMNSLRAEDTAVYYCARVGLFGPFDIWGQGTMVTVSS
VL: EIVLTQSPGTLSLSPGERATLSCRASQSVSRYLGWYQQKPGQAPRLLIYGASTRATGIPDRFSGSGSGTDFTLTITRLEPEDFAVYYCQQYGSSPWTFGQGTKVEIK
B5: AGEN1884.H2.3 (IgG1) (antibody, V domains shown)
VH: EVQLVESGGGLVKPGGSLRLSCAASGFTFSSYSMNWVRQAPGKGLEWVSSISSSSSYIYYAESVKGRFTISRDNAKNSLYLQMNSLRAEDTAVYYCARVGLMGPFDIWGQGTLVTVSS
VL: EIVLTQSPGTLSLSPGERATLSCRASQSVSRYLGWYQQKPGQAPRLLIYGASTRATGIPDRFSGSGSGTDFTLTITRLEPEDFAVYYCQQYGSSPWTFGQGTKVEIK
B6: AGEN1884.H1.2 (IgG1) (antibody, V domains shown)
VH: EVQLVESGGGLVKPGGSLRLSCAASGFTFSSYSMNWVRQAPGKGLEWVSSISSSSSYIYYADSVKGRFTISRDNAKNSLYLQMNSLRAEDTAVYYCARVGLMGPFDIWGQGTLVTVSS
VL: EIVLTQSPGTLSLSPGERATLSCRASQSVSRYLGWYQQKPGQAPRLLIYGASTRATGIPDRFSGSGSGTDFTLTITRLEPEDFAVYYCQQYGSSPWTFGQGTKVEIK
B7: AGEN1884.H1.3 (IgG1) (antibody, V domains shown)
VH: EVQLVESGGGLVKPGGSLRLSCAASGFTFSSYSMNWVRQAPGKGLEWVSSISSSSSYIYYAESVKGRFTISRDNAKNSLYLQMNSLRAEDTAVYYCARVGLMGPFDIWGQGTMVTVSS
VL: EIVLTQSPGTLSLSPGERATLSCRASQSVSRYLGWYQQKPGQAPRLLIYGASTRATGIPDRFSGSGSGTDFTLTITRLEPEDFAVYYCQQYGSSPWTFGQGTKVEIK
B8: AGEN1884.H2.1 (IgG1) (antibody, V domains shown)
VH: EVQLVESGGGLVKPGGSLRLSCAASGFTFSSYSMNWVRQAPGKGLEWVSSISSSSSYIYYADSVKGRFTISRDNAKNSLYLQMNSLRAEDTAVYYCARVGLFGPFDIWGQGTLVTVSS
VL: EIVLTQSPGTLSLSPGERATLSCRASQSVSRYLGWYQQKPGQAPRLLIYGASTRATGIPDRFSGSGSGTDFTLTITRLEPEDFAVYYCQQYGSSPWTFGQGTKVEIK

Molecular target: T1, human CTLA-4 on Jurkat cells engineered to constitutively express human CTLA-4 (Promega) (human, UniProt P16410 36-223)
T1 construct: Bought cell line; also called CTLA-4-expressing cells; cells expressing human CTLA-4
Test: flow cytometry, 5 µg/ml antibody on Jurkat cells expressing human CTLA-4
Description: The binding of anti-CTLA-4 antibodies AGEN1884.H3 (IgG_1 S239D/I332E), AGEN1884.H3 (IgG_1 S239D/A330L/I332E), and AGEN1884.H3 (IgG_1L235V/F243L/R292P/Y300L/P396L) to CTLA-4-expressing cells was characterized similarly as described above. Briefly, Jurkat cells engineered to express human CTLA-4 (Promega) were stained first with 5 μg/ml of an anti-CTLA-4 antibody or an isotype control antibody and then with an anti-human IgG secondary antibody (Thermo Scientific, Cat #31529). The cells were analyzed using BD FACS Canto II.

Binding result, binds:
B1, B2

Molecular target: T1, human CTLA-4 on Jurkat cells engineered …
Test: flow cytometry, 2 µg/ml antibody on Jurkat cells expressing human CTLA-4
Description: Jurkat cells engineered to constitutively express human CTLA-4 (Promega) were used to analyze the binding of anti-CTLA-4 antibodies. Briefly, the cells were stained at 5 ×10^5 cells/well using 2 µg/ml of antibody in a 96-well plate for 30 minutes at 4° C. The cells were washed twice and incubated for 20 minutes at 4° C. with an anti-human IgG secondary antibody (Thermo Scientific, Cat #31529). The cells were washed and suspended in […] of 2% paraformaldehyde (Alfa Aesar, Cat #43368) prepared in PBS. Data were collected with BD FACS Canto II.

Binding result, binds:
B3, B4, B5, B6, B7, B8
